The MegaScale stability set (Tsuboyama et al. 2023)

B1: HEEH_KT_rd6_0007 (parent)
chain: SIEEEIKKAEEAKEKGKTFIHGDFVATTEELLDELLKRLRKKL
B2: HHH_rd2_0155 (parent)
chain: PPDDERKKAEKAARSGNEEKAREILERLGYSEDEARELAKRLR

Variants of: B1
Assay: folding stability dG (cDNA display proteolysis); higher = more stable
Conditions: PBS, room temperature

Folding stability dG [kcal/mol], by site and new letter:
I6: D 0.648 | F 0.542 | S 0.742 | E 0.593 | A 0.662 | H 0.603 | W 0.615 | N 0.587 | Q 0.793 | Y 0.676 | G 0.684 | M 0.782 | T 0.576 | K 0.651 | P 0.487 | V 0.729 | R 0.719 | L 1.04
E5: T 1.84 | A 2.05 | R 1.09 | H 1.11 | K 1.06 | I 2.4 | L 2.35 | N 1.05 | D 1.23 | S 1.31 | Y 1.56 | M 2.05 | F 1.74 | G 0.897 | W 2.01 | V 2.13 | Q 1.61 | P 0.677
K7: M 1.16 | C 1.38 | P 0.656 | W 0.964 | I 1.01 | F 0.95 | Y 0.923 | V 0.878 | T 0.994 | G 0.824 | N 0.942 | A 1.31 | L 1.14 | D 0.626 | S 0.891 | Q 1.25 | R 1.6 | H 1.06 | E 0.935
E4: S 1.12 | A 1.25 | L 1.21 | N 1.02 | M 1.26 | H 1.06 | I 1.03 | C 1.78 | Y 1.06 | D 1.27 | F 1.03 | V 0.909 | T 0.909 | P 0.777 | R 1.07 | G 0.862 | Q 1.11 | W 1.27 | K 1
E3: D 1.01 | I 1.36 | W 1.7 | F 1.23 | H 1.12 | A 1.27 | T 1.04 | Q 1.22 | M 1.45 | L 1.52 | R 1.2 | G 0.881 | Y 1.28 | K 1.16 | V 1.24 | N 0.919 | P 0.866 | S 1.07
A9: G 0.708 | D 0.579 | C 1.78 | F 0.698 | E 0.511
K8: M 1.26 | E 0.75 | N 0.961 | Y 0.777 | V 0.672 | P 0.542 | R 1.42 | W 1.02 | S 0.904 | D 0.721 | G 0.922 | H 0.921 | Q 1.22 | F 0.758 | I 0.785 | L 1.23 | T 0.724 | A 1.21
I2: V 1.08 | E 0.545 | P 0.683 | R 0.776 | F 0.811 | Y 0.989 | T 0.763 | M 0.866 | K 0.732 | W 1.04 | G 0.715 | H 0.643 | N 0.583 | S 0.818 | L 1.47 | A 0.756 | Q 0.766 | D 0.705
S1: I 0.975 | W 1.78 | D 1.24 | R 1.27 | H 1.13 | V 1.01 | T 1.28 | M 1.16 | Q 1.07 | Y 1.36 | F 1.23 | P 1.01 | E 1.11 | L 1.23 | K 1.14 | G 1.11 | N 1.19 | A 1.21

Variants of: B2
Assay: as above
Conditions: PBS, room temperature

Folding stability dG [kcal/mol]: each site, then its substitutions
P2: H 2.24 | W 2.29 | R 2.17 | A 2.18
R14: W 1.77 | A 1.78 | I 1.84
L38: S 0.129 | T 1.09 | M 2.09
A13: D 0.978 | Q 0.906 | R 0.884 | W 1.82 | H 1
N17: Q 1.81 | D 2.42 | R 1.46 | H 1.77 | P 0.962 | F 1.9 | E 1.71
R36: W 1.68 | P -0.165
A21: Y 1.52 | C 1.87 | S 1.23 | E 0.697 | F 1.63 | H 0.916 | G 0.961
S15: V 1.55 | G 1.86 | Q 2.21 | T 1.8 | W 1.83
E32: T 1.93 | S 2.08 | K 2.21 | N 1.51 | Q 1.99 | H 1.97
L42: W 3.74 | R 0.996 | G 0.615 | D 0.37
D4: R 1.98 | E 2.26 | T 2.17 | V 2.06 | P 1.88 | W 2.09 | L 2.22 | A 2.09
I24: G 0.167 | M 1.43 | F 1.3
A12: V 1.49 | E 2 | H 1.9
K11: T 2.11 | D 2.38 | E 2.5 | R 2.47 | H 2.32
E34: D 1.87 | W 1.08 | C 1.92 | Y 1.51
R43: K 1.79 | G 1.48 | V 1.77
R22: Y 1.33 | H 0.903 | V 2.21 | N 0.74 | S 1
E19: D 2.03 | S 1.9 | F 1.91 | T 2.05 | L 2.15
G16: K 1.22 | A 1.15 | M 1.33 | F 1.53
K20: Y 2.11 | S 1.61 | W 1.98 | Q 1.86 | I 1.9
R41: L 2.04 | I 1.6 | M 1.86 | E 1.05 | Q 1.78 | K 1.98
L25: I 0.435 | V 0.267 | G 0.372 | W 1.64 | R 0.127
D3: S 2.08 | N 1.98
G29: T 0.143 | V 0.455 | L -0.221 | S 0.474
P1: Q 2.2 | W 2.33 | T 2.36
Y30: E 0.197
R6: G 1.11 | A 1.63 | Y 3.31
K40: F 1.8 | S 1.97
E5: N 1.5 | G 1.65
R27: L 1.81 | Q 1.89 | D 0.997
A9: L 1.33 | N 0.839 | M 1.05 | Y 1.47
A35: D 0.38 | Q 0.88 | V 0.99
L28: C 1.85 | R 0.697 | P 0.261 | I 1.7 | K 0.443 | F 1.2 | E 0.577 | T 0.615
A39: P -0.361 | K 0.184 | N 0.26 | E 0.651 | D -0.2
K7: F 1.89 | L 2.17 | S 1.94 | W 2.15 | A 2.1
S31: M 1.03 | L 0.779 | N 1.66
D33: R 1.79 | K 1.92 | L 1.85 | S 2.13 | V 1.71 | Y 1.91
K8: I 1.84
E10: T 1.82 | H 1.75 | K 1.78
E26: K 2.41 | H 1.82 | N 1.22 | D 0.509 | G 1.5 | R 2.65
E37: F 1.98 | R 2.34 | A 2.27 | K 2.1 | Q 2.1 | V 2.03 | P -0.452
E18: K 0.82 | S 1.37 | D 1.53 | M 2.61
E23: P 0.763 | R 2.21 | I 1.93 | F 1.61 | S 1.73 | Y 1.68
